Data from patent US20220306751A1 (MYTHIC THERAPEUTICS, published 2022).

T1: CD123 Protein, His Tag, Acro Biosciences Cat. No. ILA-H52H6 (Homo sapiens (Human), UniProt P26951 19-305)
T1 construct: Bought protein; not shown: His tag
T1 sequence: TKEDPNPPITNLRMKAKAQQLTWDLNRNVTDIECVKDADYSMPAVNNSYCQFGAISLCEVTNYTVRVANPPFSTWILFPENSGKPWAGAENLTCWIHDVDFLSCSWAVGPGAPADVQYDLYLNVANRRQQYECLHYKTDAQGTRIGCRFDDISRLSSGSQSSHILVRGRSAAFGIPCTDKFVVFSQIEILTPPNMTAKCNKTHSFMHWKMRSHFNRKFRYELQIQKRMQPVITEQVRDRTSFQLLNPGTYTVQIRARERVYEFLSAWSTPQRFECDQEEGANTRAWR


Molecular target: T1, CD123 Protein, His Tag, Acro …
Test: BLI, IgG on anti-human Fc sensor, 50 nM CD123, pH 7.4 and pH 5.4
Excerpt: We selected IMGN632 (Heavy chain SEQ ID NO: 1, Light chain SEQ ID NO: 2) as a CD123-binding monoclonal antibody for pH engineering via histidine scanning. Briefly, CDRs in the heavy chain were identified using the methods described by Kabat et al (Kabat et al. (1992) Sequences of Proteins of Immunological Interest, DIANE publishing) and IMGT (Lefranc M P (1999) “The IMGT unique numbering for Immunoglobulins, T cell receptors and Ig-like domains” The Immunologist 7, 132-136), and for each CDR, residues falling under either or both Kabat and IMGT CDR definitions were called as CDR residues. To generate pH-dependent sequence variants, individual amino acid residues within the heavy chain CDRs were systematically substituted with a histidine, one at a time (MYT1252-MYT1292). In cases where the starting CDR residue was a histidine, it was mutated to an alanine. Antibody variants with only one histidine or alanine mutation in a heavy chain CDR were generated by co-transfection of Expi293 cells with a) one heavy chain sequence variant, and b) the corresponding starting ABPC light chain using methods known to the art. After allowing for four days of protein expression, cell culture supernatants were collected, quantified by SDS-PAGE analysis (FIG. 1), and the pH dependence of the variant was evaluated using biolayer interferometry (BLI) on an Octet RED 384 instrument. For constructs MYT1252, MYT1254-MYT1287, and MYT1289-1292, 104, of cell culture supernatant was diluted into 1904, of 1× PBST pH 7.4. For MYT1253 and MYT1288 254, and 504, of cell culture supernatant was diluted into 1754, and 1504, respectively. […] The resulting diluted supernatants were then captured on an anti-human Fc sensor (Forte Bio). A baseline was established using 1× PBST (50 mM Potassium Phosphate Buffer+150 mM NaCl+0.05% Tween 20) pH 7.4, and the sensor was associated with 50 nM of CD123 (CD123 Protein, His Tag, Acro Biosciences Cat. No. ILA-H52H6, Lot No. 1741d-89CF1-KB) in 1×PBST pH 7.4 for 120 sec to generate an association curve. In the dissociation phase, the antibody-antigen complex on the sensor was exposed to 1× PBST pH 7.4 for 300-600 sec. Baseline, association, and dissociation were repeated using 1×PBST pH 5.4 throughout in a separate condition.

binding result | Binder
binds | MYT1270 (antibody, V domains shown, IgG) VH: QVQLVQSGAEVKKPGASVKVSCKASGYIFTSSIMHWVRQAPGQGLEWIGYIKPYNDGHKYNEKFKGRATLTSDRSTSTAYMELSSLRSEDTAVYYCAREGGNDYYDTMDYWGQGTLVTVSS VL: DIQMTQSPSSLSASVGDRVTITCRASQDINSYLSWFQQKPGKAPKTLIYRVNRLVDGVPSRFSGSGSGNDYTLTISSLQPEDFATYYCLQYDAFPYTFGQGTKVEIK
binds | MYT1271 (antibody, V domains shown, IgG) VH: QVQLVQSGAEVKKPGASVKVSCKASGYIFTSSIMHWVRQAPGQGLEWIGYIKPYNDGTHYNEKFKGRATLTSDRSTSTAYMELSSLRSEDTAVYYCAREGGNDYYDTMDYWGQGTLVTVSS VL: DIQMTQSPSSLSASVGDRVTITCRASQDINSYLSWFQQKPGKAPKTLIYRVNRLVDGVPSRFSGSGSGNDYTLTISSLQPEDFATYYCLQYDAFPYTFGQGTKVEIK
binds | MYT1279 (antibody, V domains shown, IgG) VH: QVQLVQSGAEVKKPGASVKVSCKASGYIFTSSIMHWVRQAPGQGLEWIGYIKPYNDGTKYNEKFKGRATLTSDRSTSTAYMELSSLRSEDTAVYYCHREGGNDYYDTMDYWGQGTLVTVSS VL: DIQMTQSPSSLSASVGDRVTITCRASQDINSYLSWFQQKPGKAPKTLIYRVNRLVDGVPSRFSGSGSGNDYTLTISSLQPEDFATYYCLQYDAFPYTFGQGTKVEIK
binds | MYT1283 (antibody, V domains shown, IgG) VH: QVQLVQSGAEVKKPGASVKVSCKASGYIFTSSIMHWVRQAPGQGLEWIGYIKPYNDGTKYNEKFKGRATLTSDRSTSTAYMELSSLRSEDTAVYYCAREGHNDYYDTMDYWGQGTLVTVSS VL: DIQMTQSPSSLSASVGDRVTITCRASQDINSYLSWFQQKPGKAPKTLIYRVNRLVDGVPSRFSGSGSGNDYTLTISSLQPEDFATYYCLQYDAFPYTFGQGTKVEIK
binds | MYT1285 (antibody, V domains shown, IgG) VH: QVQLVQSGAEVKKPGASVKVSCKASGYIFTSSIMHWVRQAPGQGLEWIGYIKPYNDGTKYNEKFKGRATLTSDRSTSTAYMELSSLRSEDTAVYYCAREGGNHYYDTMDYWGQGTLVTVSS VL: DIQMTQSPSSLSASVGDRVTITCRASQDINSYLSWFQQKPGKAPKTLIYRVNRLVDGVPSRFSGSGSGNDYTLTISSLQPEDFATYYCLQYDAFPYTFGQGTKVEIK
binds | MYT1277 (antibody, V domains shown, IgG) VH: QVQLVQSGAEVKKPGASVKVSCKASGYIFTSSIMHWVRQAPGQGLEWIGYIKPYNDGTKYNEKFHGRATLTSDRSTSTAYMELSSLRSEDTAVYYCAREGGNDYYDTMDYWGQGTLVTVSS VL: DIQMTQSPSSLSASVGDRVTITCRASQDINSYLSWFQQKPGKAPKTLIYRVNRLVDGVPSRFSGSGSGNDYTLTISSLQPEDFATYYCLQYDAFPYTFGQGTKVEIK
binds | MYT1286 (antibody, V domains shown, IgG) VH: QVQLVQSGAEVKKPGASVKVSCKASGYIFTSSIMHWVRQAPGQGLEWIGYIKPYNDGTKYNEKFKGRATLTSDRSTSTAYMELSSLRSEDTAVYYCAREGGNDHYDTMDYWGQGTLVTVSS VL: DIQMTQSPSSLSASVGDRVTITCRASQDINSYLSWFQQKPGKAPKTLIYRVNRLVDGVPSRFSGSGSGNDYTLTISSLQPEDFATYYCLQYDAFPYTFGQGTKVEIK
binds | MYT1274 (antibody, V domains shown, IgG) VH: QVQLVQSGAEVKKPGASVKVSCKASGYIFTSSIMHWVRQAPGQGLEWIGYIKPYNDGTKYNHKFKGRATLTSDRSTSTAYMELSSLRSEDTAVYYCAREGGNDYYDTMDYWGQGTLVTVSS VL: DIQMTQSPSSLSASVGDRVTITCRASQDINSYLSWFQQKPGKAPKTLIYRVNRLVDGVPSRFSGSGSGNDYTLTISSLQPEDFATYYCLQYDAFPYTFGQGTKVEIK
binds | MYT1272 (antibody, V domains shown, IgG) VH: QVQLVQSGAEVKKPGASVKVSCKASGYIFTSSIMHWVRQAPGQGLEWIGYIKPYNDGTKHNEKFKGRATLTSDRSTSTAYMELSSLRSEDTAVYYCAREGGNDYYDTMDYWGQGTLVTVSS VL: DIQMTQSPSSLSASVGDRVTITCRASQDINSYLSWFQQKPGKAPKTLIYRVNRLVDGVPSRFSGSGSGNDYTLTISSLQPEDFATYYCLQYDAFPYTFGQGTKVEIK
binds | MYT1287 (antibody, V domains shown, IgG) VH: QVQLVQSGAEVKKPGASVKVSCKASGYIFTSSIMHWVRQAPGQGLEWIGYIKPYNDGTKYNEKFKGRATLTSDRSTSTAYMELSSLRSEDTAVYYCAREGGNDYHDTMDYWGQGTLVTVSS VL: DIQMTQSPSSLSASVGDRVTITCRASQDINSYLSWFQQKPGKAPKTLIYRVNRLVDGVPSRFSGSGSGNDYTLTISSLQPEDFATYYCLQYDAFPYTFGQGTKVEIK
binds | MYT1278 (antibody, V domains shown, IgG) VH: QVQLVQSGAEVKKPGASVKVSCKASGYIFTSSIMHWVRQAPGQGLEWIGYIKPYNDGTKYNEKFKHRATLTSDRSTSTAYMELSSLRSEDTAVYYCAREGGNDYYDTMDYWGQGTLVTVSS VL: DIQMTQSPSSLSASVGDRVTITCRASQDINSYLSWFQQKPGKAPKTLIYRVNRLVDGVPSRFSGSGSGNDYTLTISSLQPEDFATYYCLQYDAFPYTFGQGTKVEIK
binds | MYT1276 (antibody, V domains shown, IgG) VH: QVQLVQSGAEVKKPGASVKVSCKASGYIFTSSIMHWVRQAPGQGLEWIGYIKPYNDGTKYNEKHKGRATLTSDRSTSTAYMELSSLRSEDTAVYYCAREGGNDYYDTMDYWGQGTLVTVSS VL: DIQMTQSPSSLSASVGDRVTITCRASQDINSYLSWFQQKPGKAPKTLIYRVNRLVDGVPSRFSGSGSGNDYTLTISSLQPEDFATYYCLQYDAFPYTFGQGTKVEIK
binds | MYT1275 (antibody, V domains shown, IgG) VH: QVQLVQSGAEVKKPGASVKVSCKASGYIFTSSIMHWVRQAPGQGLEWIGYIKPYNDGTKYNEHFKGRATLTSDRSTSTAYMELSSLRSEDTAVYYCAREGGNDYYDTMDYWGQGTLVTVSS VL: DIQMTQSPSSLSASVGDRVTITCRASQDINSYLSWFQQKPGKAPKTLIYRVNRLVDGVPSRFSGSGSGNDYTLTISSLQPEDFATYYCLQYDAFPYTFGQGTKVEIK
binds | MYT1282 (antibody, V domains shown, IgG) VH: QVQLVQSGAEVKKPGASVKVSCKASGYIFTSSIMHWVRQAPGQGLEWIGYIKPYNDGTKYNEKFKGRATLTSDRSTSTAYMELSSLRSEDTAVYYCAREHGNDYYDTMDYWGQGTLVTVSS VL: DIQMTQSPSSLSASVGDRVTITCRASQDINSYLSWFQQKPGKAPKTLIYRVNRLVDGVPSRFSGSGSGNDYTLTISSLQPEDFATYYCLQYDAFPYTFGQGTKVEIK
binds | MYT1280 (antibody, V domains shown, IgG) VH: QVQLVQSGAEVKKPGASVKVSCKASGYIFTSSIMHWVRQAPGQGLEWIGYIKPYNDGTKYNEKFKGRATLTSDRSTSTAYMELSSLRSEDTAVYYCAHEGGNDYYDTMDYWGQGTLVTVSS VL: DIQMTQSPSSLSASVGDRVTITCRASQDINSYLSWFQQKPGKAPKTLIYRVNRLVDGVPSRFSGSGSGNDYTLTISSLQPEDFATYYCLQYDAFPYTFGQGTKVEIK
binds | MYT1273 (antibody, V domains shown, IgG) VH: QVQLVQSGAEVKKPGASVKVSCKASGYIFTSSIMHWVRQAPGQGLEWIGYIKPYNDGTKYHEKFKGRATLTSDRSTSTAYMELSSLRSEDTAVYYCAREGGNDYYDTMDYWGQGTLVTVSS VL: DIQMTQSPSSLSASVGDRVTITCRASQDINSYLSWFQQKPGKAPKTLIYRVNRLVDGVPSRFSGSGSGNDYTLTISSLQPEDFATYYCLQYDAFPYTFGQGTKVEIK
binds | MYT1284 (antibody, V domains shown, IgG) VH: QVQLVQSGAEVKKPGASVKVSCKASGYIFTSSIMHWVRQAPGQGLEWIGYIKPYNDGTKYNEKFKGRATLTSDRSTSTAYMELSSLRSEDTAVYYCAREGGHDYYDTMDYWGQGTLVTVSS VL: DIQMTQSPSSLSASVGDRVTITCRASQDINSYLSWFQQKPGKAPKTLIYRVNRLVDGVPSRFSGSGSGNDYTLTISSLQPEDFATYYCLQYDAFPYTFGQGTKVEIK
